Measured values taken from patent KR20130034043A, “폴리펩타이드” (애피바디 에이비, priority 2010, dated 2013).
One block for each compound: values may come before it. Where no end group is shown, it is not given here.

What was measured:
[1] = Small animal PET, whole-body distribution of 68Ga-labelled polypeptide (Example 11); type: in vivo, 랫트; conditions: after i.v. injection, […] scan
[2] = test system: CD3+ CD4+ T 세포
[3] = test system: 인간 혈청 함유 IgG; type: binding
[4] = Melting temperature (Tm) by circular dichroism, variable temperature (Example 3); type: physicochemical; conditions: higher Tm with N-terminal serine
[5] = molecular target: T1, 인간 혈청 알부민(HSA) (Homo sapiens, UniProt P02768); test: Biacore (SPR) affinity for immobilised HSA (Example 2); type: binding; conditions: as in Example 2; data not shown
T1 construct: purchased Novozymes

[6] = molecular target: T2, RSA (Rattus norvegicus, UniProt P02770); test: Biacore affinity for albumin of various species: rat (Example 7); type: binding, 랫트; conditions: range stated over all five species
T2 construct: purchased Sigma-Aldrich A6272
T2 sequence (P02770 25-608): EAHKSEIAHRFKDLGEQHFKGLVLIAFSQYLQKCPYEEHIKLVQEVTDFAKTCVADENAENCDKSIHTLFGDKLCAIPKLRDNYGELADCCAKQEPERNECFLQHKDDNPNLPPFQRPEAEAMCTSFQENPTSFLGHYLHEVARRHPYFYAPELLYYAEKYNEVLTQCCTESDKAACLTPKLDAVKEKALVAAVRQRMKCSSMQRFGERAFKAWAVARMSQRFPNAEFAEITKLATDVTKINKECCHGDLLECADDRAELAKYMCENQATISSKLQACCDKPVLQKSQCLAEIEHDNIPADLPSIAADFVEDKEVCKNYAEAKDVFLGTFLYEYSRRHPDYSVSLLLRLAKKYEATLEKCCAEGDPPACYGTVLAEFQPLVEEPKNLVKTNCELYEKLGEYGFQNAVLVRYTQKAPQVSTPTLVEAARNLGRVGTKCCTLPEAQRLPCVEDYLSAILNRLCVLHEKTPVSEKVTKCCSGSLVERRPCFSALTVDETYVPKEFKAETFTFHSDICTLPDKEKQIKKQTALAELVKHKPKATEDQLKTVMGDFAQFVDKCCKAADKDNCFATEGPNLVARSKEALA

[7] = molecular target: T1, 인간 혈청 알부민(HSA); test: Biacore affinity for albumin of various species: human (Example 7); type: binding
[8] = molecular target: T3, CSA (Macaca fascicularis, UniProt A2V9Z4); test: Biacore affinity for albumin of various species: cynomolgus (Example 7); type: binding, 필리핀 원숭이; conditions: range stated over all five species
T3 construct: CSA(cynomolgus 혈청으로부터 얻어 in-house 정제시킴); from tissue; host or cells: cynomolgus serum
T3 sequence (A2V9Z4 25-608): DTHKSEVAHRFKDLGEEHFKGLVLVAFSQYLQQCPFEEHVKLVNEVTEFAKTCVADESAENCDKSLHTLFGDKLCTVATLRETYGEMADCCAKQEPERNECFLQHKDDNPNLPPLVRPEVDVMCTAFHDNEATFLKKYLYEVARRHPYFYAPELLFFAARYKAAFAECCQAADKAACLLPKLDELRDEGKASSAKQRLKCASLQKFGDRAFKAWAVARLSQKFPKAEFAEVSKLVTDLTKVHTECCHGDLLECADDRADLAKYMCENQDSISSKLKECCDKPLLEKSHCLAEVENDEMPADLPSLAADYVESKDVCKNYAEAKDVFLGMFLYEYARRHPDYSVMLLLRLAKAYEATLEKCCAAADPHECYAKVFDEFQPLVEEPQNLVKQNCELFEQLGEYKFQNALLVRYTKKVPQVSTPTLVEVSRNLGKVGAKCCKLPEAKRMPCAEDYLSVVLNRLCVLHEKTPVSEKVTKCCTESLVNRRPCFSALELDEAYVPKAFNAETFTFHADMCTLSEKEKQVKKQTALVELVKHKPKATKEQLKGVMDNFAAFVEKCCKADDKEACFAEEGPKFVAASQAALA

[9] = molecular target: T4, MSA (Mus musculus, UniProt P07724); test: Biacore affinity for albumin of various species: mouse (Example 7); type: binding, 마우스; conditions: range stated over all five species
T4 construct: purchased Sigma-Aldrich A3559
T4 sequence (P07724 25-608): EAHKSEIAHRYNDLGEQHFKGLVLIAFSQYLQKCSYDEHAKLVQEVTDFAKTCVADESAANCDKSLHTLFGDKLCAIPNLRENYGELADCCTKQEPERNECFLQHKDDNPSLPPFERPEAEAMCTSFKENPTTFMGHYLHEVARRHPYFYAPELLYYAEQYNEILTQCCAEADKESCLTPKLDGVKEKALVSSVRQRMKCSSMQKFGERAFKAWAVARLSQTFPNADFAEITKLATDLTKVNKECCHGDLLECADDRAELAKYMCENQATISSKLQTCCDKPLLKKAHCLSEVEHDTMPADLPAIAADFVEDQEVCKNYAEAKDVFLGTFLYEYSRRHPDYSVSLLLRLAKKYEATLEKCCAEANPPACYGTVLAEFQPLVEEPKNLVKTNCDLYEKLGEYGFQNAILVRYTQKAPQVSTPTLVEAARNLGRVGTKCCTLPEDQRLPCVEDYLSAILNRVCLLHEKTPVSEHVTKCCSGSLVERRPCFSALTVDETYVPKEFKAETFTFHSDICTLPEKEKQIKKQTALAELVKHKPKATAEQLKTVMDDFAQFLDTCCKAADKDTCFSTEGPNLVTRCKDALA

[10] = Stability to heat, CD analysis of structural reversibility (Example 10); type: physicochemical
[11] = molecular target: T5, HSA (Homo sapiens, UniProt P02768); test: Stability to heat and low pH, biosensor analysis of HSA binding (Example 10); type: physicochemical, 인간; conditions: 90℃, 10 min, pH 4.0
T5 construct: purchased Novozymes

[12] = molecular target: T6, DSA (Canis lupus familiaris, UniProt P49822); test: Biacore affinity for albumin of various species: dog (Example 7); type: binding, 개; conditions: range stated over all five species
T6 construct: purchased MP Biomedicals 55925
T6 sequence (P49822 25-608): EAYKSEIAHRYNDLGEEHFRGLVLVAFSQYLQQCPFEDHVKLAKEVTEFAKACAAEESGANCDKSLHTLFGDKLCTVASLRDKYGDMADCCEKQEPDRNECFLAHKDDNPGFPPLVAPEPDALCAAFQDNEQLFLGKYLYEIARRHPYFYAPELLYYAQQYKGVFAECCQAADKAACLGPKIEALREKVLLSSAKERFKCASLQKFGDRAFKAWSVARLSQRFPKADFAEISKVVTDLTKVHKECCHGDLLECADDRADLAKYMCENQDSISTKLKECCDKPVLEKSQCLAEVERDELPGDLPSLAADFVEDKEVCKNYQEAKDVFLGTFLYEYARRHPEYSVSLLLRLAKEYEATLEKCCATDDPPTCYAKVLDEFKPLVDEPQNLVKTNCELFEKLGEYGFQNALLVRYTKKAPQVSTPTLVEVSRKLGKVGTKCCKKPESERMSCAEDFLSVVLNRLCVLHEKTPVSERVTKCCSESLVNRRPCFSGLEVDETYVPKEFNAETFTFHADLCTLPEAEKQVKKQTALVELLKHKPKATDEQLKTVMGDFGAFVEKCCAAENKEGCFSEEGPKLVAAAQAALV

Compound: 68Ga-PEP08296: 68Ga-labelled PEP08296 (DOTA-conjugated PEP08185, SEQ ID NO:148) (GSLAEAKEAANAELDCYGVSDFYKRLIDKAKTVEGVEALKDAILAALPG; also: DOTA chelator conjugated, place not given here, 68Ga label)
Plasma clearance [1]: 매우 느린

Compound: CC[C@H](C)[C@H](NC(=O)[C@H](C)NC(=O)[C@H](CC(=O)O)NC(=O)[C@H](CCCCN)NC(=O)[C@H](CC(C)C)NC(=O)[C@H](C)NC(=O)[C@H](CCC(=O)O)NC(=O)[C@@H](NC(=O)CNC(=O)[C@H](CCC(=O)O)NC(=O)[C@@H](NC(=O)[C@@H](NC(=O)[C@H](CCCCN)NC(=O)[C@H](C)NC(=O)[C@H](CCCCN)NC(=O)[C@H](CC(=O)O)NC(=O)[C@@H](NC(=O)[C@H](CC(C)C)NC(=O)[C@H](CCCNC(=N)N)NC(=O)[C@H](CCCCN)NC(=O)[C@H](Cc1ccc(O)cc1)NC(=O)[C@H](Cc1ccccc1)NC(=O)[C@H](CC(=O)O)NC(=O)[C@H](CO)NC(=O)[C@@H](NC(=O)CNC(=O)[C@H](Cc1ccc(O)cc1)NC(=O)[C@H](CSC1CC(=O)N(CCNC(=O)CN2CCN(CC(=O)O)CCN(CC(=O)O)CCN(CC(=O)O)CC2)C1=O)NC(=O)[C@H](CC(=O)O)NC(=O)[C@H](CC(C)C)NC(=O)[C@H](CCC(=O)O)NC(=O)[C@H](C)NC(=O)[C@H](CC(N)=O)NC(=O)[C@H](C)NC(=O)[C@H](C)NC(=O)[C@H](CCC(=O)O)NC(=O)[C@H](CCCCN)NC(=O)[C@H](C)NC(=O)[C@H](CO)NC(=O)[C@H](C)NC(=O)[C@H](CC(C)C)NC(=O)CN)C(C)C)[C@@H](C)CC)[C@@H](C)O)C(C)C)C(C)C)C(=O)N[C@@H](CC(C)C)C(=O)N[C@@H](C)C(=O)N[C@@H](C)C(=O)N[C@@H](CC(C)C)C(=O)N1CCC[C@H]1C(=O)O (some centres unmarked) [PEP07968]
Immunogenicity classification [2]: 비-면역원성
Number of responding individuals compared with buffer only [2]: 1 명
Reactivity with human serum IgG (mean OD and proportion of sera binding) [3]: 가장 낮은 반응도

Compound: PEP07554: albumin binding polypeptide variant, SEQ ID NO:156 (GSS + PP007 sequence) (GSSLASAKEAANAELDSYGVSDFYKRLIDKAKTVEGVEALKDAILAALP; Engineered albumin-binding polypeptide)
Tm difference, N-terminal serine vs glycine at the same position (PEP07554 vs PEP07912) [4]: 5 °C

Binding activity to HSA [5]: 확인하였으며
Compound: PEP07975: maleimide-DOTA-conjugated PEP07834 (SEQ ID NO:160), C-terminal amide, chemically synthesised (ALASAKEAANAELDCYGVSDFYKRLIDKAKTVEGVEALKDAILAALP-NH2; also: maleimide-DOTA conjugate, place not given here)

Compound: PEP08296: DOTA-conjugated PEP08185 (SEQ ID NO:148) (GSLAEAKEAANAELDCYGVSDFYKRLIDKAKTVEGVEALKDAILAALPG; also: DOTA conjugate, place not given here)
KD for RSA [6]: 높은 친화성(KD가 피코몰 미만으로부터 나노몰 미만까지의 범위에 속함)
Rank order of relative affinity for albumins of the species ([7]; HSA, CSA, RSA, MSA, DSA): RSA ≥ HSA/CSA > MSA/DSA
Affinity (KD) compared with PEP06923 ([7]; albumins of the tested species, same order of magnitude): 같거나 약간 낮다
KD for HSA ([7]; range stated over all five species): 높은 친화성(KD가 피코몰 미만으로부터 나노몰 미만까지의 범위에 속함)
KD for CSA [8]: 높은 친화성(KD가 피코몰 미만으로부터 나노몰 미만까지의 범위에 속함)
KD for MSA [9]: 높은 친화성(KD가 피코몰 미만으로부터 나노몰 미만까지의 범위에 속함)
Alpha helix content after heat treatment, pH 4.0 ([10]; 90℃, 12 min, PBS pH 4.0): 약간 감소
Alpha helix content after heat treatment, pH 7.2 ([10]; 90℃, 12 min, PBS pH 7.2): 어떠한 변화도 없었다
Effect of short heating to 90℃ on structure (CD spectra before/after) ([10]; temperature gradient 20-90℃, pH 4 or pH 7.2 buffer): 전혀 영향을 미치지 않았다
HSA binding capacity after heat treatment [11]: 약간 떨어뜨렸다
KD for DSA [12]: 높은 친화성(KD가 피코몰 미만으로부터 나노몰 미만까지의 범위에 속함)
